Data from PMC7190626.

B1: α1D-adrenergic receptor (α1D-AR): N65Q (protein)
parent chain: MTFRDLLSVSFEGPRPDSSAGGSSAGGGGGSAGGAAPSEGPAVGGVPGGAGGGGGVVGAGSGEDNRSSAGEPGSAGAGGDVNGTAAVGGLVVSAQGVGVGVFLAAFILMAVAGNLLVILSVACNRHLQTVTNYFIVNLAVADLLLSATVLPFSATMEVLGFWAFGRAFCDVWAAVDVLCCTASILSLCTISVDRYVGVRHSLKYPAIMTERKAAAILALLWVVALVVSVGPLLGWKEPVPPDERFCGITEEAGYAVFSSVCSFYLPMAVIVVMYCRVYVVARSTTRSLEAGVKRERGKASEVVLRIHCRGAATGADGAHGMRSAKGHTFRSSLSVRLLKFSREKKAAKTLAIVVGVFVLCWFPFFFVLPLGSLFPQLKPSEGVFKVIFWLGYFNSCVNPLIYPCSSREFKRAFLRLLRCQCRRRRRRRPLWRVYGHHWRASTSGLRQDCAPSSGDAPPGAPLALTALPDPDPEPPGTPEMQAPVASRRKPPSAFREWRLLGPFRRPTTQLRAKVSSLSHKIRAGGAQRAEAACAQRSEVEAVSLGVPHEVAEGATCQAYELADYSNLRETDI
B2: α1D-adrenergic receptor (α1D-AR): N82Q (protein)
parent chain: B1 parent chain
B3: α1D-adrenergic receptor (α1D-AR): S-NQQ-C (protein)
parent chain: B1 parent chain
B4: α1D-adrenergic receptor (α1D-AR): tunicamycin 5 μg/mL (protein)
parent chain: B1 parent chain
B5: α1D-adrenergic receptor (α1D-AR): NQQ (protein)
parent chain: B1 parent chain

What was measured:
[1] = confocal colocalisation with ER stain CytoPainter; details: glycan lost; control: WT SNAP-α1D
[2] = cell-impermeable SNAP substrate BG-782 surface labelling; details: glycan lost; control: WT SNAP-α1D
[3] = PAGE NIR of SNAP-labelled HEK293 lysate; details: glycan lost; control: WT SNAP-α1D
[4] = sucrose density gradient fractionation, PAGE NIR; details: glycan lost; control: WT SNAP-α1D
[5] = dual SNAP/CLIP tag PAGE NIR; details: glycan lost; control: S-WT-C
[6] = PAGE NIR after 16 hr tunicamycin; details: glycan lost; control: EtOH vehicle
[7] = SNAP-Capture pull-down, MS/MS peptide coverage; details: glycan lost; control: WT SNAP-α1D

| Protein | localisation_or_trafficking, other: % change from SNAP alone [2] | other: full-length receptor biogenesis [3] | localisation_or_trafficking, other: % total AUC in low-density (ER) peak [4] | also measured |
| --- | --- | --- | --- | --- |
| B1 | decreases, 13.40 ± 4.65 vs 46.13 ± 5.61 | no change | changes, 46.33 vs 92.47 | localisation_or_trafficking, other: Pearson's coefficient [1]: no change, 0.70 ± 0.04 vs 0.72 ± 0.03 |
| B2 | decreases, 9.49 ± 5.95 vs 46.13 ± 5.61 | no change | no change, 89.13 vs 92.47 | – |
| B3 | – | – | – | other: full-length receptor biogenesis [5]: abolishes |
| B4 | – | – | – | other: full-length receptor biogenesis [6]: changes |
| B5 | – | abolishes, primarily expressed as a single, robust band of ~43 kDa in size | – | other: full-length receptor biogenesis [7]: abolishes |
